The values that follow come from the RNAGym collection of RNA variant scans (doi:10.7554/elife.90254).

The labels stand for the following.
B1: LINE1-full (parent)
chain: UACGUAGGUGGUUUUCCCCUGAUAGUGCUAAGGGGGCCUGGAAGUUUGGACUGGGCAGAGCUCAACACAGCGUGGCAAAGUGGCUGUGGCUAGACUGCCUCUCUGGAUUCCUCGUCACUCAGCAGGGCAUCUCUGAGAGAAAUGCC

The variants in the data set derive from B1. The data set can be described thus: self-cleavage, relative activity (ratio to wild type); higher = more cleavage; in vitro, sequencing; the parent is a self-cleaving ribozyme.
Regarding A57G A140U, the self-cleavage stood at 1.05.

Turning to A57C U130A, the self-cleavage was 0.03.

In the case of G55U A117G, the self-cleavage stood at 0.3.

With G55U A117U, the self-cleavage amounted to 0.46.

Turning to A57G U115A, the self-cleavage stood at 0.81.

On to A57G U115C, for which the self-cleavage was 1.3.

In the case of G55U A59G, the self-cleavage turned out to be 0.05.

In the case of C56U A67G, the self-cleavage was determined as 0.07.

Regarding G55A U112C, the self-cleavage turned out to be 0.14.

For the variant G53A G126U, the self-cleavage came to 1.31.

Take G53A G126A: the self-cleavage was 1.23.

With G55C A77U, the self-cleavage turned out to be 0.06.

Regarding G53C, the self-cleavage came to 1.13.

With G53A, the self-cleavage came out at 1.32.

With G53U, the self-cleavage worked out at 1.25.

Consider G54U A69G, for which the self-cleavage worked out at 0.17.

A57U C99U: the self-cleavage was determined as 0.04.

Regarding G53U U112C, the self-cleavage stood at 1.31.

With U52G G144A, the self-cleavage is 1.34.

Regarding A57U U73C, the self-cleavage was 0.1.

For the variant A57U U73A, the self-cleavage was determined as 0.06.

As to G54U U119C, the self-cleavage came to 1.34.

In the case of A57G U62A, the self-cleavage stood at 0.05.

For the variant A57G U62C, the self-cleavage is 0.08.

For G54U U108C, the self-cleavage came to 0.36.

As to G55C U108C, the self-cleavage came out at 0.18.

On to A57G C128A, for which the self-cleavage is 0.12.

With A57G C128U, the self-cleavage is 0.79.

As to G53U U62C, the self-cleavage amounted to 0.08.

Turning to G54C U81A, the self-cleavage turned out to be 0.4.

For the variant G55U U115C, the self-cleavage was 0.4.

Take G55U U115A: the self-cleavage is 0.14.

For the variant C56A A121G, the self-cleavage worked out at 0.03.

In the case of A57G A141G, the self-cleavage is 0.72.

As to A57G A67U, the self-cleavage was determined as 0.06.

In the case of A57C A136G, the self-cleavage was found to be 0.05.

Consider A57U C120A, for which the self-cleavage was 0.05.

As to G54C U96C, the self-cleavage worked out at 0.03.

G54A U102C: the self-cleavage was 0.33.

In the case of G54A G83A, the self-cleavage was found to be 0.52.

On to G53A C128U, for which the self-cleavage was found to be 1.34.

With U52G, the self-cleavage was 1.45.

G54A A67G: the self-cleavage was found to be 0.12.

Take G54A U62A: the self-cleavage worked out at 0.01.

As to G54A U62C, the self-cleavage is 0.07.

Take A57U G144A: the self-cleavage was determined as 0.16.

As to G54U U96C, the self-cleavage was determined as 0.07.

As for G55U G144A, the self-cleavage stood at 0.43.

With A57U A141G, the self-cleavage turned out to be 0.11.

Consider G53C A136G, for which the self-cleavage worked out at 0.36.

As to C56U A129G, the self-cleavage was 0.22.

Regarding G53A U115C, the self-cleavage worked out at 1.07.

For G53A U115A, the self-cleavage worked out at 1.31.

As to A57G A107U, the self-cleavage worked out at 0.92.

Regarding G54A U119C, the self-cleavage amounted to 1.35.

For the variant G54U A121G, the self-cleavage stood at 0.97.

Consider U52G U87G, for which the self-cleavage amounted to 0.59.

With A57G U108A, the self-cleavage was 0.8.

Turning to C56A U143A, the self-cleavage stood at 0.09.

In the case of A57U C110U, the self-cleavage is 0.05.

On to A57U C110A, for which the self-cleavage turned out to be 0.19.

Regarding A57G U73A, the self-cleavage is 0.37.

For C56A A141G, the self-cleavage turned out to be 0.07.

A57G C63U: the self-cleavage worked out at 0.17.

As to G53U A107G, the self-cleavage stood at 1.08.

G53A A57G: the self-cleavage came to 0.73.

With G54U A92G, the self-cleavage turned out to be 0.08.

Turning to G55A A124U, the self-cleavage worked out at 0.19.

Take C56A U73C: the self-cleavage is 0.05.

For A57G U119C, the self-cleavage turned out to be 1.4.

Take G54A A121C: the self-cleavage worked out at 1.05.

Turning to G54A A121G, the self-cleavage is 0.51.

For C56U A142U, the self-cleavage stood at 0.23.

Consider A57C G86A, for which the self-cleavage stood at 0.04.

Regarding C56U A124G, the self-cleavage worked out at 0.08.

As for C56U U85A, the self-cleavage was determined as 0.04.

Take G54U C84U: the self-cleavage was 0.07.

Regarding G53U U104C, the self-cleavage stood at 2.38.

In the case of C56U U112A, the self-cleavage was found to be 0.1.

On to A57U G125A, for which the self-cleavage came to 0.04.

Consider A57U, for which the self-cleavage was 0.1.

As for A57C, the self-cleavage is 0.08.

Turning to A57G, the self-cleavage amounted to 0.88.

Consider A57C A92U, for which the self-cleavage is 0.

As for U52G C118U, the self-cleavage turned out to be 2.3.

Regarding G53A A129G, the self-cleavage stood at 1.4.

For A57G A121G, the self-cleavage worked out at 1.07.

Consider G54A G105U, for which the self-cleavage worked out at 0.7.

On to G53U U108C, for which the self-cleavage came to 1.56.

Turning to G54A A129G, the self-cleavage is 0.76.

For the variant G54A A129U, the self-cleavage amounted to 0.4.

A57G C120U: the self-cleavage came to 1.54.

With G54A U87A, the self-cleavage is 0.06.

As to G54A U87C, the self-cleavage worked out at 0.1.

Take A57U C98G: the self-cleavage was found to be 0.06.

As for A57G A117G, the self-cleavage is 1.41.

Take G53A U108C: the self-cleavage is 1.97.

As for A57G U81A, the self-cleavage was determined as 1.16.

Regarding A57G U81C, the self-cleavage turned out to be 0.89.

On to A57U A94C, for which the self-cleavage is 0.1.

G55A U134C: the self-cleavage is 0.23.

As for G54U U104C, the self-cleavage was found to be 1.28.

A57U A64C: the self-cleavage is 0.06.

As for A57G A138G, the self-cleavage is 1.12.

A57U A121U: the self-cleavage was 0.12.

As for A57U A121G, the self-cleavage came out at 0.15.

Consider A57G G106A, for which the self-cleavage worked out at 1.04.

For the variant C56G U91C, the self-cleavage amounted to 0.05.

On to A57U A78U, for which the self-cleavage is 0.03.

In the case of A57U A140G, the self-cleavage was 0.11.

For A57U A140U, the self-cleavage worked out at 0.2.

For the variant A57U C61U, the self-cleavage came out at 0.03.

On to A57U A136C, for which the self-cleavage amounted to 0.1.

C56U A77G: the self-cleavage worked out at 0.16.

For A57C A77U, the self-cleavage turned out to be 0.08.

On to A57G C101U, for which the self-cleavage is 1.13.

For the variant U52G G70A, the self-cleavage is 0.42.

For G55U A121G, the self-cleavage was 0.37.

As to A57G U109C, the self-cleavage turned out to be 0.49.

For A57G U102G, the self-cleavage was determined as 0.19.

In the case of A57G U102A, the self-cleavage amounted to 0.82.

In the case of U52G U115C, the self-cleavage was found to be 1.71.

Regarding A57G A69U, the self-cleavage turned out to be 0.07.

On to C56U A141G, for which the self-cleavage was 0.14.

G54A C84U: the self-cleavage was determined as 0.08.

As to G53A U87C, the self-cleavage came to 0.18.

Consider U52G U143A, for which the self-cleavage was 1.32.

On to U52G U143C, for which the self-cleavage was determined as 1.99.

For the variant G54A A64G, the self-cleavage was 0.13.

With G54A U115A, the self-cleavage is 0.64.

With G55A C63U, the self-cleavage is 0.13.

Turning to C56G A92U, the self-cleavage is 0.04.

Take A57U A142U: the self-cleavage stood at 0.08.

As for A57U A142G, the self-cleavage came to 0.12.

Turning to A57U U62A, the self-cleavage worked out at 0.03.

Regarding A57U U62C, the self-cleavage came to 0.05.

Turning to A57U U62G, the self-cleavage was 0.

For the variant G55A A121G, the self-cleavage came out at 0.26.

With A57C G72U, the self-cleavage was 0.03.

As for G53A U100C, the self-cleavage came out at 1.09.

Regarding A57G G75A, the self-cleavage is 0.73.

Take A57G G75C: the self-cleavage was found to be 0.35.

As for G53U G70C, the self-cleavage was found to be 0.14.

Consider G53U U143C, for which the self-cleavage stood at 1.14.

In the case of A57U A107U, the self-cleavage is 0.02.

As to A57U A107G, the self-cleavage is 0.14.

Consider A57G A124G, for which the self-cleavage is 0.41.

Turning to A57G A124U, the self-cleavage turned out to be 0.76.

Turning to G53A U134G, the self-cleavage was found to be 0.56.

As to A57G A129G, the self-cleavage was 0.74.

Take G54A A77G: the self-cleavage was found to be 1.02.

For A57G A65U, the self-cleavage is 0.15.

Regarding A57G A65G, the self-cleavage is 0.1.

As for G53U U115C, the self-cleavage stood at 1.91.

In the case of G54A A117G, the self-cleavage was found to be 0.52.

In the case of C56G A67G, the self-cleavage worked out at 0.

Consider G55A C111U, for which the self-cleavage was found to be 0.3.

On to G54U A78G, for which the self-cleavage came to 0.44.

In the case of G53U A78G, the self-cleavage worked out at 0.71.

As for A57U U100C, the self-cleavage came out at 0.19.

As for C56U A138U, the self-cleavage turned out to be 0.1.

In the case of C56U A138G, the self-cleavage came out at 0.31.

In the case of A57U U85A, the self-cleavage was determined as 0.05.

Regarding A57U U85C, the self-cleavage stood at 0.06.

In the case of A57G G126A, the self-cleavage turned out to be 1.19.

For the variant C56U G86A, the self-cleavage is 0.04.

A57G U104C: the self-cleavage came out at 1.11.
